Earlier results on one substance are cited in article PMC11578925.

The target of one data set is CD28 (Homo sapiens) (UniProt P10747).
For the next data set, the target named is PD-L1 (Homo sapiens) (UniProt Q9NZQ7).
Chain of UniProt Q9NZQ7 (Q9NZQ7 19-238): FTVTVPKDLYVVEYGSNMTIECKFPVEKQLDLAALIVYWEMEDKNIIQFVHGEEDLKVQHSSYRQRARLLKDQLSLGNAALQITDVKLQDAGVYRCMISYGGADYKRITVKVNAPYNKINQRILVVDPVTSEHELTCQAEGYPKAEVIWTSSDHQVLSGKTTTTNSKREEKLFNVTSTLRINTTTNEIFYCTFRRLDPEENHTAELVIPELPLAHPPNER

Regarding CD80 (from UniProt P33681), the Kd with CD28 (Homo sapiens) is 4000 nM; in the data set with PD-L1 (Homo sapiens), 1700 nM.
